The source of these data is patent publication US20210163580A1 (NATIONAL HEALTH RESEARCH INSTITUTES, published 2021).

No end group written: not given here. *: point of attachment. Biotin = O=C1N[C@H]2[C@H](CS[C@H]2CCCCC(=O)*)N1

The target in experiment [1] is T1, RSPO2 (UniProt Q6UXX9 22-243, limits assumed). Kind of experiment: ELISA on coated antigen (BSA, RSPO1, RSPO2, RSPO3, RSPO4), absorbance 450 nm [A].
The target of experiment [2] is T2, RSPO1 (UniProt Q2MKA7 21-263, limits assumed). Described as above.
T2 sequence (Q2MKA7 21-263 limits assumed): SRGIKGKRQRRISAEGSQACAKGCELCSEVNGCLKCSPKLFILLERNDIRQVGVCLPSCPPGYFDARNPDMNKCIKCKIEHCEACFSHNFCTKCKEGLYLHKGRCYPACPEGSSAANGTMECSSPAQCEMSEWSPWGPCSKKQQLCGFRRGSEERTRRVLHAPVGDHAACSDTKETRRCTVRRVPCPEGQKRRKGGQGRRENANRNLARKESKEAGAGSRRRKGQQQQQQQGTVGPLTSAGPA
Experiment [3] deals with T3, RSPO4 (UniProt Q2I0M5 20-234, limits assumed). Described as above.
T3 sequence (Q2I0M5 20-234 limits assumed): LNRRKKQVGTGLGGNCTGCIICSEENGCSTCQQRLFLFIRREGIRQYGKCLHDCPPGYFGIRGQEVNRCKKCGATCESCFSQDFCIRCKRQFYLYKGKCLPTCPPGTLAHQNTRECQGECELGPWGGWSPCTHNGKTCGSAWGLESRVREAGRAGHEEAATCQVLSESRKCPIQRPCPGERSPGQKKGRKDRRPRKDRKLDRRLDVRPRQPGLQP
In experiment [4] the target is T4, recombinant human RSPO3 protein (human, UniProt Q9BXY4 22-272).
T4 construct: Used biotinylated on Octet sensors, immobilised on a CM5 chip in Biacore, and coated on ELISA plates; also called hRSPO3; huRSPO3
T4 sequence (looked up): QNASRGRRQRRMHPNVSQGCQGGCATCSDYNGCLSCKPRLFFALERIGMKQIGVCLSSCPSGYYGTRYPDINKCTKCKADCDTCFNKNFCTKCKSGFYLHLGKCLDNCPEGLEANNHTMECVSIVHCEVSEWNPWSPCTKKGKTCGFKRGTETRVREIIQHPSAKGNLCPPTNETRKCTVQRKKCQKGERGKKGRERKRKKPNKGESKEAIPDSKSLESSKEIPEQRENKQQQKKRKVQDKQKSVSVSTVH
Kind of experiment: BLI (Octet, ForteBio); biotinylated RSPO3 on streptavidin sensors. How it is done:
The streptavidin-coated sensors were coated with 10 μg/ml of biotinylated RSPO3 as described in the handbook of ForteBio. Antibody concentrations were in the range of 0.75 and 93.8 nM. Quantitative kinetic binding analysis was performed with pH-adjusted PBS with 0.5% BSA. All steps were run at 30° C. with a continuous shaking speed at 1000 rpm.
To assess the RSPO3-binding affinities of the antibodies, kinetics assays were performed by the Octetsystems.
A general note: BLI is a label-free optical method that tracks binding on a fibre tip over time.

In experiment [5] the target is T1, RSPO2. Kind of experiment: Western blot: RSPO1-4 on the blot, probed with the hybridoma antibody [B]. In general terms: A western blot detects proteins with antibodies after separation by electrophoresis.
Experiment [6] has as its target T2, RSPO1. The experiment is described as above.
For experiment [7], the target named is T3, RSPO4. The experiment is described as above.
Experiment [8] concerns the target T4, recombinant human RSPO3 protein. Description: ELISA on coated antigen (BSA, RSPO1, RSPO2, RSPO3, RSPO4), absorbance 450 nm [B].
In the next experiment the target is T5, ERGKKGRERK
T5 construct: member of the PepSet library m27
T5 peptide: Biotin-SGSGERGKKGRERK
Kind of experiment: PepSet ELISA: biotinylated 10-mer on NeutrAvidin plate, antibody 10 µg/ml, OD450 [C]. From the text: (§1) FIG. 8 is a set of graphs showing mapping of the α-RSPO3 Ab epitopes on RSPO3 protein by Pep-set.
(§2) The deduced amino acid sequence of RSPO3 (GenBank accession no. NP_116173) was used as the reference sequence to design the PepSet library of biotinylated linear peptides that cover the mature domain of RSPO3. The 121 peptides synthesized by Mimotopes (Victoria, Australia) were 10 amino acids in length and offset by 2 residues in these two formats: Biotin-SGSG-PEPTIDE-NH2 for N-terminal peptide and Biotin-SGSG-PEPTIDE-OH for the C-terminal peptide. The peptides (1-3 mg) were dissolved in 200 microliter 80/20 DMSO/water mixture and further diluted at 1:200 in PBS containing 0.1% BSA and 0.1% sodium azide as working solution. In order to attach different biotinylated peptides on each well of the plates, plates coated with NeutrAvidin and blocked with BSA (Thermo Scientific Pierce, Rockford, Ill.) were utilized. Plates were washed three times with 1× PBS with 0.1% Tween 20 and then […] biotinylated peptide solution was applied to each well of plates. After one hour incubation at room temperature, plates were washed three times again with 1× PBST. α-RSPO3 antibodies at 10 μg/ml were then added to each well of plates and the plates were incubated with agitation for one hour. […] To detect bound anti-RSPO3 antibodies, Goat anti-human IgG-Fc-HPR was then applied to plates for one hour. After removing extra detection antibodies by washing the plates with 1× PBST, 100 μl Tetramethylbenzidine (TMB) substrate solution was added to each well for 20 minutes.

For a further experiment, the target named is T6, GKKGRERKRK
T6 construct: member of the PepSet library m27
T6 peptide: Biotin-SGSGGKKGRERKRK
The experiment is described as above.
Text: as §1, §2

The next experiment addresses T7, KGRERKRKKP
T7 construct: member of the PepSet library m27
T7 peptide: Biotin-SGSGKGRERKRKKP
Described as above.
Text: as §1, §2

For another experiment, the target named is T8, RENKQQQKKR
T8 construct: member of the PepSet library m27
T8 peptide: Biotin-SGSGRENKQQQKKR
The experiment is described as above.
Text: as §1, §2

For experiment [9], the target named is T1, RSPO2. Description: Western blot: RSPO1-4 on the blot, probed with the hybridoma antibody [A].
The target of experiment [10] is T2, RSPO1. Described as above.
Experiment [11] addresses T3, RSPO4. The experiment is described as above.
The target in experiment [12] is T4, recombinant human RSPO3 protein. Description: SPR (Biacore T200); hRSPO3 immobilised on CM5 chip, antibody injected, single-cycle, 1:1 model. How it is done:
FIG. 7 is a graph showing use of Biacore to measure the binding kinetics of α-RSPO3 Abs-antigen interaction. The binding sensorgrams were generated using a Biacore T200 and then fitted to a simple 1:1 interaction model. […] The association was monitored for 2 min, and the final dissociation time was 15 min hRSPO3 was immobilized on a CMS chip at 27.5 RU.
The binding kinetics between α-RSPO3 Abs and recombinant human RSPO3 protein (hRSPO3) were performed at 25° C. using a Biacore T200 biosensor equipped with a CMS Series S Sensor Chip (GE Healthcare). […] Obtained sensorgrams were corrected by double subtracting the signal obtained on a reference surface and the signal of the running buffer. Sensograms were fit globally with BIAcore T200 evaluation software 3.0 using 1:1 binding model to yield affinity constants (KD values) for α-RSPO3 Abs. Replicate measurements were made in separate experiments, using independently prepared α-RSPO3 Abs dilution series and huRSPO3-coated chip surfaces.
A general note: Surface plasmon resonance follows binding to a sensor surface in real time, without labels.

For experiment [13] the target is unchanged. Kind of experiment: cell-based or functional assay.

T1 sequence (Q6UXX9 22-243 limits assumed): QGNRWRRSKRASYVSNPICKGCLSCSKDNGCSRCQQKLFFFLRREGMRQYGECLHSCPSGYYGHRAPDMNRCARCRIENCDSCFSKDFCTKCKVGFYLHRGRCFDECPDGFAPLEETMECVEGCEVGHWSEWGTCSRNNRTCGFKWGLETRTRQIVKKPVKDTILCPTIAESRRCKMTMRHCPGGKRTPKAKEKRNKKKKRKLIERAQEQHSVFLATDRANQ

B1: anti-RSPO3 hybridoma antibody A4 (antibody, IgG1, V domains shown)
VH: QVQLQESGAELAKPGASVKMSCKASGHTLTYYWMHWVKQRPGQGLEWIGYIDPSTGYSEYNQRFEGKATLTADKSSGTVYMQLSSLTSEDSAVYYCARNGPFAYWGQGTLVTVSA
VL: DNVLTQSPAIMSASPGEKVTMTCSASSSVNYMYWYQQKPGSSPRLLIYDTSKLASGVPVRFSGSGSGTSYSLTISRMEAEDAATYYCQQWSSSPLTFGVGAKLEIKR
notes: Murine hybridoma mAb; also called clone A4; hybridoma A4
As a reminder, the Kd is the equilibrium constant for the complex coming apart. For orientation: koff means the first-order rate constant of dissociation. As usually defined, the kon is the rate constant with which the complex forms. As for B1, the binding result with RSPO2 [1] is reported as “no binding”. For the same molecule, the binding result with RSPO1 [2] was “no binding”. Further, in the experiment with RSPO4 [3], the binding result is “no binding”. In addition, in experiment [4], the Kd amounted to 27 nM, the koff was found to be 0.000884 s⁻¹ and the kon is 32700 M⁻¹ s⁻¹.

B2: anti-RSPO3 hybridoma antibody B1 (antibody, IgG1, V domains shown)
VH: QIQLQESGPGLVKPSQSLSLTCSVTGYSITSGYYWNWIRQFPGNKLEWMGYISYDGTNNYNPSLKDRISITRDTSMNQFFLKLNSVTTEDTATYYCSVLLIQYFNIWGAGTTVTVSS
VL: DIQMTQSPASLSASVGETVTITCRTSESVNNFLAWFHQKQGKSPQLLVYHAKTLADGVSSRFSGSGSGTQYSLKINSLQPEDFGNYYCQHFWSIPWTFGGGTKLEIKR
notes: Murine hybridoma mAb; also called clone B1
On to B2, for which the binding result with RSPO2 [5] is given as “no binding”; in the experiment with RSPO1 [6] it was “no binding”; with RSPO4 [7] it was “no binding”; in [8] it was “binds”.

B3: anti-RSPO3 hybridoma antibody A6 (antibody, IgG2a, V domains shown)
VH: QVQLQQSGAEIVRSGASVKLSCTASGFSITEYYIHWVKQRPDQGLEWIGMIDPENGDTDYAPKFQGKATMTADTSSNTVNLQLSSLTSEDTAVYYCHGPGPLEYWGQGTTLTVSS
VL: DIVMTQSPLSLPVSLGDQASISCRSSQSIVHSNGNTYLEWYLQKPGQSPNLLIYRVSNRFSGVPDRFNGSGSGTDFTLKISRVEPEDLGVYSCFQASHVPYTFGGGTKLEIKR
notes: Murine hybridoma mAb; also called clone A6; hybridoma A6
As for B3, the binding result in the experiment with ERGKKGRERK is recorded as “binds”; with GKKGRERKRK, “binds”; with KGRERKRKKP, “binds”; in the experiment with RENKQQQKKR it was “binds”; with RSPO2 [9] it was “no binding”; with RSPO1 [10], “no binding”. The binding result with RSPO4 [11] is given as “no binding”. The Kd in [4] is 10.4 nM. For the same molecule, the koff in experiment [4] came out at 0.0025 s⁻¹. Moreover, the kon in experiment [4] came out at 241000 M⁻¹ s⁻¹.

B4: rosmantuzumab (131R010) (antibody, V domains shown)
VH: QVQLVQSGAEVKKPGASVKVSCKASGYTFTDYSIHWVRQAPGQGLEWIGYIYPSNGDSGYNQKFKNRVTMTRDTSTSTAYMELSRLRSEDTAVYYCATYFANNFDYWGQGTTLTVSS
VL: DIQMTQSPSSLSASVGDRVTITCKASQSVDYDGDSYMNWYQQKPGKAPKLLIYAASNLESGVPSRFSGSGSGTDFTLTISPVQAEDFATYYCQQSNEDPLTFGAGTKLELK
As to B4, in experiment [12], the Kd turned out to be 0.02 nM, the koff was 0.000181 s⁻¹ and the kon was determined as 9.4e+06 M⁻¹ s⁻¹. Besides, the “IC50 in the WNT reporter assay (MDA-MB436 TCF/LEF-Luc, Wnt3a plus hRSPO3)” value in experiment [13] amounted to 58.7 nM.

B5: reference anti-RSPO3 antibody 131R002 (antibody, V domains shown)
VH: QVQLQESGPELVKPGASVKISCKASGYTFTDYSIHWVKQNHGKSLDWIGYIYPSNGDSGYNQKFKNRATLTVDTSSSTAYLEVRRLTFEDSAVYYCATYFANYFDYWGQGTTLTVSS
VL: DIVLTQSPASLAVSLGQRATISCKASQSVDYDGDSYMNWYQQKPGQPPKLLIYAASNLESGIPARFSGSGSGTDFTLNIHPVEEEDAATYYCQQSNEDPLTFGAGTKLELKR
In the case of B5, in experiment [4], the Kd worked out at 1.93 nM, the koff came out at 0.00202 s⁻¹ and the kon was found to be 1.05e+06 M⁻¹ s⁻¹.
